T1: MLC1-derived peptide (antigen peptide of the cryo-EM complex) (Mus musculus)
T1 chain: YDRMPTLERGRQDA


Assays:
[1] = molecular target: mouse MLC1 fused to C-terminal GFP (Mus musculus (Mouse)., UniProt Q8VHK5); experiment: western blot
[2] = molecular target: Flag-tagged mouse MLC1 (mouse, UniProt Q8VHK5); experiment: western blot
[3] = molecular target: human MLC1 fused to C-terminal GFP (Homo sapiens (Human)., UniProt Q15049); experiment: western blot
[4] = molecular target: chicken MLC1 fused to C-terminal GFP (Gallus gallus, UniProt A0A1D5PIT5); experiment: western blot
[5] = molecular target: Flag-tagged human MLC1 (human, UniProt Q15049); experiment: western blot
Sequence of Flag-tagged human MLC1 (Q15049 whole entry): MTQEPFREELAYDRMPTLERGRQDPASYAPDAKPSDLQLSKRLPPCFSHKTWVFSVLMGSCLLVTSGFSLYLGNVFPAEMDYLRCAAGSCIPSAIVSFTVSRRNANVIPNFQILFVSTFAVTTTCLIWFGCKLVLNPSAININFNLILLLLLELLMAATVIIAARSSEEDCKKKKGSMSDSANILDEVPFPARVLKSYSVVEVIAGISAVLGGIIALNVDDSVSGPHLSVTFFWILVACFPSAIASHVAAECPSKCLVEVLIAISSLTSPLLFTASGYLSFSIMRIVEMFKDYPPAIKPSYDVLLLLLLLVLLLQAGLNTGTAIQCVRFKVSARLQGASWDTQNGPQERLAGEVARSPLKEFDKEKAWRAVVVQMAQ

[6] = molecular target: Flag::hMLC1::GFP (Homo sapiens (Human)., UniProt Q15049); experiment: immunostaining of cells or tissue
Sequence of Flag::hMLC1::GFP (Q15049 whole entry): as above

[7] = molecular target: endogenous human MLC1 (Homo sapiens (Human)., UniProt Q15049); experiment: immunostaining of cells or tissue
Sequence of endogenous human MLC1 (Q15049 whole entry): as above

[8] = molecular target: endogenous mouse MLC1 (Mus musculus (Mouse)., UniProt Q8VHK5); experiment: co-IP
Sequence of endogenous mouse MLC1 (Q8VHK5 whole entry): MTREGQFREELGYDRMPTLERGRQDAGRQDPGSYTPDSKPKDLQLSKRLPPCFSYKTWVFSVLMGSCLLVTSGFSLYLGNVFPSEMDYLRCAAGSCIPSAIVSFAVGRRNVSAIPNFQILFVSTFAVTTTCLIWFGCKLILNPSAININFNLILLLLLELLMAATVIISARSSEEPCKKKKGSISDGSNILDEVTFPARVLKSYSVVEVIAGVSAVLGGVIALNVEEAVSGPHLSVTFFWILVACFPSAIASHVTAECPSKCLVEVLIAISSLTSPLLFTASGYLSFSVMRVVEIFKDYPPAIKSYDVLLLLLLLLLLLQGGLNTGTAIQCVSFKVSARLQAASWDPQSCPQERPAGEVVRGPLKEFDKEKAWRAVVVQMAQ

[9] = molecular target: T1, MLC1-derived peptide (antigen peptide …); experiment: cryo-EM structure

Sequence of mouse MLC1 fused to C-terminal GFP (Q8VHK5 whole entry, the tested form may be a part): as the sequence (Q8VHK5 whole entry) above
Sequence of Flag-tagged mouse MLC1 (Q8VHK5 whole entry, the tested form may be a part): as the sequence (Q8VHK5 whole entry) above
Sequence of human MLC1 fused to C-terminal GFP (Q15049 whole entry, the tested form may be a part): as the sequence (Q15049 whole entry) above

binding result [1] | binding result [2] | binding result [3] | binding result [4] | binding result [5] | binding result [6] | binding result [7] | binding result [8] | binding result [9] | Binder
binds | binds | binds | binds | binds | binds | binds | binds |  | monoclonal antibody 37E5 (anti-MLC1), whole IgG (antibody, V domains shown) VH: QIQLVQSGPDLKKPGETVKISCKASGYTFTNYGMSWVKQAPGKVLKWMGWINTYTGEPTYADDFKGRFAFSLETSANTAYLQINNLKNEDTATYFCAREGATSGFPYWGQGTLVTVSA VL: DIVMSQSPSSLAVSAGEKVTMSCRSSQSLLNSRTRKNYLAWYQQKPGQSPKLLIYWASTRESGVPDRFTGSGSGTDFTLTISSVQAEDLAVYYCKQSYDLPYTFGGGTKLEIK
 |  |  |  |  |  |  |  | binds | 37E5 Fab fragment (Fab, V domains shown) VH: QIQLVQSGPDLKKPGETVKISCKASGYTFTNYGMSWVKQAPGKVLKWMGWINTYTGEPTYADDFKGRFAFSLETSANTAYLQINNLKNEDTATYFCAREGATSGFPYWGQGTLVTVSA VL: DIVMSQSPSSLAVSAGEKVTMSCRSSQSLLNSRTRKNYLAWYQQKPGQSPKLLIYWASTRESGVPDRFTGSGSGTDFTLTISSVQAEDLAVYYCKQSYDLPYTFGGGTKLEIK

Reference: paper doi:10.1101/2025.10.08.681078 (bioRxiv, 2025)
